Key:
[1] = target: TbTrm140 (3-methylcytosine methyltransferase of Trypanosoma brucei), wild type (T. brucei); experiment: SEC
[2] = target: TbTrm140 N-terminal deletion mutant (TbTrm140 ΔS2-G17) (T. brucei); experiment: SEC

| Substance | stoichiometry N [1] | stoichiometry N [2] |
| --- | --- | --- |
| TbTrm140 (3-methylcytosine methyltransferase of Trypanosoma brucei), wild type (enzyme) | 2 | – |
| TbTrm140 N-terminal deletion mutant (TbTrm140 ΔS2-G17) (enzyme) | – | 2 |
